According to article PMC4601640, “Stability of the Human Hsp90-p50^Cdc37 Chaperone Complex against Nucleotides and Hsp90 Inhibitors, and the Influence of Phosphorylation by Casein Kinase 2” (Molecules, 2015):

T1: GST-p50^Cdc37 (human, UniProt Q16543 1-378)
T1 construct: p50 Cdc37, human, full length, residues 1-378, in pGEX6P-1; also called GST-tagged p50^Cdc37; source: E. coli BL21 (DE3), purified (glutathione sepharose, size exclusion); not shown: GST, N-terminal, kept
T1 sequence (looked up): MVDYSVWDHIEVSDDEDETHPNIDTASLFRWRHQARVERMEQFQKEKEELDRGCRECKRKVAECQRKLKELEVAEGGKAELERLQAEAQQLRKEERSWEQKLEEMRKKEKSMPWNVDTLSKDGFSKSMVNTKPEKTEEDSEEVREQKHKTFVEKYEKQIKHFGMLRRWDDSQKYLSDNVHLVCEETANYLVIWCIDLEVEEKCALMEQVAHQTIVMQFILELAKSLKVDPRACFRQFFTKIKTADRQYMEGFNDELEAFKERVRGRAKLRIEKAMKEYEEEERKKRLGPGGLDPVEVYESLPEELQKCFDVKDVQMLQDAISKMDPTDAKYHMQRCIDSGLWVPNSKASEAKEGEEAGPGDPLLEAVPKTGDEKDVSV

B1: human N-terminal Hsp90β (1-219) (domain or fragment)
chain: not shown
notes: Hsp90β, human, N-terminal domain, residues 1-219; Gene synthesised by GeneArt; pET28a; also called N-Hsp90; Hsp90β-N
B2: human Hsp90α (1-732 Δ226-283) (natural protein)
chain: not shown
notes: Hsp90α, human, residues before the deleted section 226-283 of the construct 1-732; four glycine residues that replace the deleted section 226-283; Hsp90α, human, residues after the deleted section 226-283 of the construct 1-732; Gene synthesised by GeneArt; pET28a; also called ΔHsp90α
B3: human full-length p50^Cdc37 (residues 1-378) (natural protein, UniProt Q16543 1-378, looked up)
chain: T1 sequence (looked up)
notes: p50 Cdc37, human, full length, residues 1-378; Eluted as a dimer in size-exclusion chromatography; source: tag cleaved with PreScission protease
B4: CK2-phosphorylated human full-length p50^Cdc37 (natural protein, UniProt Q16543 1-378, looked up)
chain: T1 sequence (looked up)
modifications: phosphoserine at 13 (shown by Western blot)
notes: p50 Cdc37, human, full length, residues 1-378, phosphorylated by CK2α; also called (p)p50^Cdc37; source: E. coli Tuner (DE3), purified, then phosphorylated in vitro with purified CK2α and ATP
B5: human Hsp90β (1-724 Δ220-275) (natural protein)
chain: not shown
notes: Hsp90β, human, residues before the deleted charged linker 220-275 of the construct 1-724; four glycine residues that replace the deleted section 220-275; Hsp90β, human, residues after the deleted charged linker 220-275 of the construct 1-724; Gene synthesised by GeneArt, codon optimised for E. coli; pET28a; also called ΔHsp90; ΔHsp90β

Assays:
Conditions in all cases: both partners purified
[1] = target: B3; test: ITC; p50^Cdc37 (200 µM) titrated into Hsp90 (20 µM); 50 mM HEPES pH 7.5, 10 mM MgCl2, 30 °C
GST-p50^Cdc37 = target: T1, GST-p50^Cdc37; test: ELISA; GST-p50^Cdc37 (4 µM) immobilised on glutathione-coated plates; His6-Hsp90 (4 µM) pre-incubated with nucleotides and/or inhibitors in 5% DMSO, detected with anti-His6; 50 mM HEPES pH 7.5, 150 mM NaCl, 10 mM MgCl2, 0.05% Tween-20, 0.1% BSA; room temperature
human full-length Hsp90β [2] = target: T2, human full-length Hsp90β (human, UniProt P08238 1-724); test: ITC; p50^Cdc37 (200 µM) titrated into Hsp90 (20 µM); 50 mM HEPES pH 7.5, 10 mM MgCl2, 30 °C
T2 construct: Hsp90β, human, full length, subcloned from T47D cell line cDNA into pET28a; Eluted as a dimer in size-exclusion chromatography; No step that removes the His6 tag is described; the tag is detected in the ELISA; also called hHsp90β-FL; His6-Hsp90

[3] = target: T3, CK2-phosphorylated human full-length Hsp90β (human, UniProt P08238 1-724, phosphoserine at 255 (shown by Western blot); Ser226 named as a CK2 site, its phosphorylation could not be verified); test: as above
T3 construct: Hsp90β, human, full length, phosphorylated by CK2α; only pSer255 was checked; also called (p)Hsp90; h(p)Hsp90β-FL; source: E. coli BL21 Star (DE3), purified, then phosphorylated in vitro with purified CK2α and ATP

human full-length Hsp90β [4] = target: T2, human full-length Hsp90β; test: SEC; analytical Superdex200 10/300 GL, room temperature, 0.3 mL/min; 85 µM protein in 50 mM HEPES pH 7.5, 50 mM KCl, 5 mM MgCl2, 1 mM DTT; fractions on SDS-PAGE

T3 sequence (P08238 whole entry): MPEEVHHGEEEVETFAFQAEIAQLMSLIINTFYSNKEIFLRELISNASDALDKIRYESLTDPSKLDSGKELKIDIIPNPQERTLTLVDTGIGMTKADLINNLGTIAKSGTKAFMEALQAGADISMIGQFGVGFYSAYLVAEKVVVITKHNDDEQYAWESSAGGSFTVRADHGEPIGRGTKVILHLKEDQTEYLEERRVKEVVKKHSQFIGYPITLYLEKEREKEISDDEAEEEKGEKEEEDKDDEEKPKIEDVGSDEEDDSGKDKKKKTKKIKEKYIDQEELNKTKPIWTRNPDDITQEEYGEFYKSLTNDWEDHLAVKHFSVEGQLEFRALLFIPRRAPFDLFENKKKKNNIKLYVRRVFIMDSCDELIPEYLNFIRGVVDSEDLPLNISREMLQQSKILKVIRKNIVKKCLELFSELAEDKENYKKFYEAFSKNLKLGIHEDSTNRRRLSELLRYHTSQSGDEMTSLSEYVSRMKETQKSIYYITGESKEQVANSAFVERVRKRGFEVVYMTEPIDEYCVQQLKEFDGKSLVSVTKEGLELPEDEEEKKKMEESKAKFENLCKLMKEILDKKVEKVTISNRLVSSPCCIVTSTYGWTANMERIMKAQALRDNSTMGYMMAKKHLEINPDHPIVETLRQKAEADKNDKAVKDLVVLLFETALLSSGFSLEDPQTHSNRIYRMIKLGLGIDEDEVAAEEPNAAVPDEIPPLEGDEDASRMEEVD

| Kd [1] [µM] | Kd (human full-length Hsp90β [2]) [µM] | Kd [3] [µM] | Binder | also measured |
| --- | --- | --- | --- | --- |
| 4.4 |  |  | B1 |  |
|  |  |  | B2 | binding result (GST-p50^Cdc37): binds |
|  | 1.2 | 1.7 | B3 | stoichiometry N (human full-length Hsp90β [4]): 1 |
|  | 5.1 | 8.6 | B4 |  |
| 1.1 |  |  | B5 |  |
